From the supplement of paper PMC7877785
± gives the uncertainty stated by the source.

Assay: self-splicing fitness, log relative to wild type (ln ratio); higher = more splicing; Tetrahymena group I intron in knt gene, E. coli kanamycin selection, DiMSum; sequences stand for … in CUCUCU…GGAGGGAAAAGUUAUCAGGCAUGCACCUGGUAGCUAGUCUUUAAACCAAUAGAUUGCAUCGGUUUAAAAGGCAAGACCGUCAAAUUGCGGGAAAGGGGUCAACAGCCGUUCAGUACCAAGUCUCAGGGGAAACUUUGAGAUGGCCUUGCAAAGGGUAUGGUAAUAAGCUGACGGACAUGGUCCUAACCACGCAGCCAAGUCCUAAGUCAACAGAUCUUCUGUUGAUAUGGAUGCAGUUCACAGACUAAAUGUCGGUCGGGGAAGAUGUAUUCUUCUCAUAAGAUAUAGUCGGACCUCUCCUUAAUGGGAGCUAGCGGAUGAAGUGAUGCAACACUGGAGCCGCUGGGAACUAAUUUGUAUGCGAAAGUAUAUUGAUUAGUUUUGGAGUACUCGUGGUCG
How it was run: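 Library with all eight P1ex-region intron nucleotides randomised, intron inside the knt kanamycin-resistance gene on pET-22b(+), in E. coli BL21(DE3). Cells grew overnight at 37°C or 30°C on LB agar with or without 25 μg/mL kanamycin (plus 100 μg/mL carbenicillin, 50 μM IPTG, 0.2% rhamnose), in six replicate transformations. Pooled colonies were amplicon-sequenced on Illumina HiSeq 2500. DiMSum fitness is the error-weighted combination of wild-type-normalised replicate fold changes, kanamycin versus none.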

| Sequence | self-splicing fitness (ln) (30 °C) | self-splicing fitness (ln) (37 °C) |
| --- | --- | --- |
| GGACAGCAAUAUUACGUGUG | -1.55 ± 0.05 | -0.79 ± 0.066 |
| GGACAGCAAUAUUACGUUGA | -0.48 ± 0.07 | 0.279 ± 0.098 |
| GGAGAGCAAUAUUACGAAAG | -2.26 ± 0.26 |  |
| GGAGAGCAAUAUUACGAACU | -1.36 ± 0.31 | -1.92 ± 0.37 |
| GGAGAGCAAUAUUACGAAUC | -3.58 ± 0.49 | -2.4 ± 0.39 |
| GGAGAGCAAUAUUACGAGGA | -3.52 ± 0.31 | -2.44 ± 0.19 |
| GGAGAGCAAUAUUACGAGGG | -1.99 ± 0.38 |  |
| GGAGAGCAAUAUUACGAUUC | -1.58 ± 0.29 | -0.911 ± 0.26 |
| GGAGAGCAAUAUUACGCAAA | -3.82 ± 0.43 |  |
| GGAGAGCAAUAUUACGCAUA | -3.12 ± 0.26 | -2.73 ± 0.23 |
| GGAGAGCAAUAUUACGCUUC |  | -1.31 ± 0.43 |
| GGAGAGCAAUAUUACGGAUG |  | -1.45 ± 0.35 |
| GGAGAGCAAUAUUACGGCAG | -3.29 ± 0.38 |  |
| GGAGAGCAAUAUUACGGCUU | -0.815 ± 0.2 | -2.01 ± 0.3 |
| GGAGAGCAAUAUUACGGGUC | -1.54 ± 0.15 | -1.53 ± 0.2 |
| GGAGAGCAAUAUUACGGUCC |  | -1.17 ± 0.34 |
| GGAGAGCAAUAUUACGGUGC | -3.03 ± 0.12 | -1.57 ± 0.11 |
| GGAGAGCAAUAUUACGGUUU | -2.6 ± 0.094 | -1.15 ± 0.092 |
| GGAGAGCAAUAUUACGUACA |  | -1.61 ± 0.47 |
| GGAGAGCAAUAUUACGUCGC | -1.99 ± 0.39 | 0.588 ± 0.38 |
| GGAGAGCAAUAUUACGUGGA |  | -3.26 ± 0.32 |
| GGAUAGCAAUAUUACGAGAC | -2.63 ± 0.25 | -2.63 ± 0.48 |
| GGAUAGCAAUAUUACGAUAG | -2.63 ± 0.23 | -2.86 ± 0.47 |
| GGAUAGCAAUAUUACGCAAU | -1.83 ± 0.41 | -0.704 ± 0.23 |
| GGAUAGCAAUAUUACGCGGG | -3.3 ± 0.17 | -0.931 ± 0.11 |

| Sequence | self-splicing fitness (ln) (30 °C) | self-splicing fitness (ln) (37 °C) |
| --- | --- | --- |
| GGAUAGCAAUAUUACGCUAA | -2.07 ± 0.16 | -1.03 ± 0.22 |
| GGAUAGCAAUAUUACGGAAG | -3.41 ± 0.26 | -2.85 ± 0.24 |
| GGAUAGCAAUAUUACGGAAU | -2.48 ± 0.17 | -2.33 ± 0.24 |
| GGAUAGCAAUAUUACGGCGU | 0.322 ± 0.093 | 0.626 ± 0.1 |
| GGAUAGCAAUAUUACGGGCA | -2.6 ± 0.26 | -0.844 ± 0.11 |
| GGAUAGCAAUAUUACGGUAC | -1.59 ± 0.14 | 0.179 ± 0.13 |
| GGAUAGCAAUAUUACGGUGU | -1.3 ± 0.059 | -1.05 ± 0.083 |
| GGAUAGCAAUAUUACGGUUC | -2.54 ± 0.23 | -2.05 ± 0.28 |
| GGAUAGCAAUAUUACGUAAU | -1.99 ± 0.13 | -0.617 ± 0.14 |
| GGAUAGCAAUAUUACGUACG | -0.84 ± 0.21 | -0.97 ± 0.25 |
| GGAUAGCAAUAUUACGUCGA | -0.726 ± 0.1 | -0.0349 ± 0.098 |
| GGAUAGCAAUAUUACGUGAA | -1.83 ± 0.07 | -1.13 ± 0.081 |
| GGAUAGCAAUAUUACGUGCU | -1.26 ± 0.085 | -1.21 ± 0.12 |
| GGAUAGCAAUAUUACGUUCA | -0.502 ± 0.1 | -0.00255 ± 0.15 |
| GGAUAGCAAUAUUACGUUCU | -1.88 ± 0.15 | -2.27 ± 0.24 |
| GGAUAGCAAUAUUACGUUGG | -2.7 ± 0.16 | -2.17 ± 0.22 |
| GGCAAGCAAUAUUACGAAGG | -3.36 ± 0.17 | -2.05 ± 0.19 |
| GGCAAGCAAUAUUACGACAA | -0.0702 ± 0.12 | -0.492 ± 0.13 |
| GGCAAGCAAUAUUACGACAG | -3.74 ± 0.22 | -2.63 ± 0.24 |
| GGCAAGCAAUAUUACGACCA | -1.23 ± 0.12 | -0.321 ± 0.13 |
| GGCAAGCAAUAUUACGACUA | -0.26 ± 0.13 | 0.336 ± 0.14 |
| GGCAAGCAAUAUUACGCACU | -0.587 ± 0.06 | -0.483 ± 0.075 |
| GGCAAGCAAUAUUACGCAGU | -1.88 ± 0.12 | -1.43 ± 0.13 |
| GGCAAGCAAUAUUACGCCAC | -3.87 ± 0.43 |  |
| GGCAAGCAAUAUUACGCCUA | -1.04 ± 0.14 | -1.19 ± 0.13 |

| Sequence | self-splicing fitness (ln) (30 °C) | self-splicing fitness (ln) (37 °C) |
| --- | --- | --- |
| GGCAAGCAAUAUUACGCCUG |  | -0.621 ± 0.47 |
| GGCAAGCAAUAUUACGCGCG | -0.499 ± 0.065 | -0.495 ± 0.081 |
| GGCAAGCAAUAUUACGCUCG | -1.66 ± 0.12 | -1.4 ± 0.19 |
| GGCAAGCAAUAUUACGGACG | -0.442 ± 0.089 | -0.416 ± 0.086 |
| GGCAAGCAAUAUUACGGAUU | -0.462 ± 0.11 | -0.427 ± 0.13 |
| GGCAAGCAAUAUUACGGCAA | 0.2 ± 0.086 | 0.388 ± 0.12 |
| GGCAAGCAAUAUUACGGCGC | -0.3 ± 0.082 | -0.265 ± 0.12 |
| GGCAAGCAAUAUUACGGCUA | -0.251 ± 0.11 | 1.23 ± 0.15 |
| GGCAAGCAAUAUUACGGCUC | -2.55 ± 0.25 | -0.854 ± 0.21 |
| GGCAAGCAAUAUUACGGCUU | -0.985 ± 0.074 | 0.644 ± 0.12 |
| GGCAAGCAAUAUUACGGGAG | -2.47 ± 0.15 | -1.44 ± 0.18 |
| GGCAAGCAAUAUUACGGUGC | -2.87 ± 0.16 | -1.77 ± 0.17 |
| GGCAAGCAAUAUUACGUAAA | -0.188 ± 0.089 | -0.267 ± 0.1 |
| GGCAAGCAAUAUUACGUACG | -0.191 ± 0.058 | 0.428 ± 0.075 |
| GGCAAGCAAUAUUACGUCGU | -0.68 ± 0.097 | 0.0841 ± 0.11 |
| GGCAAGCAAUAUUACGUCUC | -0.496 ± 0.087 | 0.539 ± 0.12 |
| GGCAAGCAAUAUUACGUGAC | -1.6 ± 0.12 | -0.479 ± 0.14 |
| GGCAAGCAAUAUUACGUGAG | -1.21 ± 0.059 | -0.0615 ± 0.08 |
| GGCAAGCAAUAUUACGUGCG | -1.57 ± 0.1 | -0.197 ± 0.099 |
| GGCAAGCAAUAUUACGUGCU | -3.91 ± 0.16 | -2.99 ± 0.2 |
| GGCAAGCAAUAUUACGUGUA | -0.7 ± 0.049 | -0.0721 ± 0.057 |
| GGCAAGCAAUAUUACGUGUG | -0.694 ± 0.062 | -0.126 ± 0.071 |
| GGCCAGCAAUAUUACGAAAU | -2.92 ± 0.34 | -1.04 ± 0.18 |
| GGCCAGCAAUAUUACGAACC | 0.576 ± 0.31 | -0.0497 ± 0.4 |
| GGCCAGCAAUAUUACGACAC | -0.242 ± 0.1 | 0.0601 ± 0.17 |

| Sequence | self-splicing fitness (ln) (30 °C) | self-splicing fitness (ln) (37 °C) |
| --- | --- | --- |
| GGCCAGCAAUAUUACGAGCG | -0.269 ± 0.098 | 0.191 ± 0.13 |
| GGCCAGCAAUAUUACGAUCA | -2.93 ± 0.25 | -1.53 ± 0.16 |
| GGCCAGCAAUAUUACGAUGA | -3.07 ± 0.28 | -2.03 ± 0.22 |
| GGCCAGCAAUAUUACGAUGC | -0.639 ± 0.093 | 0.00176 ± 0.11 |
| GGCCAGCAAUAUUACGCCCA | -2.11 ± 0.35 | -0.809 ± 0.25 |
| GGCCAGCAAUAUUACGCCUG | -2.83 ± 0.27 | -1.68 ± 0.23 |
| GGCCAGCAAUAUUACGCGUG | -1.22 ± 0.079 | -0.385 ± 0.092 |
| GGCCAGCAAUAUUACGCUUA | -0.822 ± 0.15 | 0.139 ± 0.17 |
| GGCCAGCAAUAUUACGGACU | -2.24 ± 0.1 | -1.2 ± 0.1 |
| GGCCAGCAAUAUUACGGCAA | -0.216 ± 0.082 | -0.645 ± 0.087 |
| GGCCAGCAAUAUUACGGCAC | -1.58 ± 0.15 | -1.41 ± 0.19 |
| GGCCAGCAAUAUUACGGCAU | -1.13 ± 0.056 | -0.688 ± 0.066 |
| GGCCAGCAAUAUUACGGCCC | -2.83 ± 0.42 |  |
| GGCCAGCAAUAUUACGGCCU | -3.58 ± 0.23 | -2.42 ± 0.27 |
| GGCCAGCAAUAUUACGGCGC | -1.79 ± 0.21 | -1.57 ± 0.34 |
| GGCCAGCAAUAUUACGGUGA | -0.376 ± 0.057 | 0.327 ± 0.076 |
| GGCCAGCAAUAUUACGGUGC | -2.91 ± 0.12 | -2.01 ± 0.11 |
| GGCCAGCAAUAUUACGGUUA | 0.0773 ± 0.069 | -0.541 ± 0.067 |
| GGCCAGCAAUAUUACGUAAC | -1.22 ± 0.082 | -1.19 ± 0.073 |
| GGCCAGCAAUAUUACGUAGC | -2.24 ± 0.16 | 0.278 ± 0.16 |
| GGCCAGCAAUAUUACGUAUG | -4.17 ± 0.31 | -2.85 ± 0.26 |
| GGCCAGCAAUAUUACGUCAG | -1.91 ± 0.13 | -2.98 ± 0.33 |
| GGCCAGCAAUAUUACGUCGU | -1.18 ± 0.061 | -0.452 ± 0.072 |
| GGCCAGCAAUAUUACGUGUC | -3.2 ± 0.17 | -1.41 ± 0.12 |
